System: HPPD polypeptides
Experiment: coupled HPPD activity assay: turnover and residual turnover in crude extracts
Assay type: biochemical, Pseudomonas fluorescens
Conditions: for Residual turnover [%]: 100 μM Cmpd. 1, signal change with inhibitor divided by signal change without inhibitor; for Turnover: absence of Cmpd. 1, kinetic changes in absorbance (OD) at 320 nm, 30 min; for Turnover / Residual turnover: high substrate concentration; for Residual turnover: presence of 100 μM Cmpd. 1, changes in absorbance (OD) at 320 nm

B1: 16 (protein)
chain: MADLYENPMGLMGFEFIEFASPTPGTLEPIFEIMGFTKVATHRSKNVHLYRQGEINLILNNEPNSIASYFAAEHGPSVCGMAFRVKDSQKAYNRALELGAQPIHIDTGPMELNLPAIKGIGGAPLYLIDRFGEGSSIYDIDFVYLEGVERNPVGAGLKVIDHLTHNVYRGRMVYWANFYEKLFNFREARYFDIKGEYTGLTSKAMSAPDGMIRIPLNEESSKGAGQIEEFLMQFNGEGIQHVAFLTDDLVKTWDALKKIGMRFMTAPSDNYYEMLEGRLPDHGEPVDQLQARGILLDGSSVEGDKRLLLQIFSETLMGPVFFEFIQRKGDDGFGPDSFKVLFESVERDQVRRGVLTAD
modifications: mutant HPPD polypeptide
- Residual turnover [%]: 46%
- Turnover: 0.181
- Residual turnover: 0.083

B2: 22 (protein)
chain: MADLYENPMGLMGFEFIEFASPTPGTLEPIFEIMGFTKVATHRSKNVHLYRQGEINLILNNEPNSIASYFAAEHGPSVCGMAFRVKDSQKAYNRALELGAQPIHIDTGPMELNLPAIKGIGGAPLYLIDRFGEGSSIYDIDFVYLEGVERNPVGAGLKVIDHLTHNVYRGRMVYWANFYEKLFNFREARYFDIKGEYTGLTSKAMSAPDGMIRIPLNEESSKGAGQIEEFLMQFNGEGIQHVAFLTDDLVKTWDALKKIGMRFMTAPGDTYYEMLEGRLPDHGEPVDQLQARGILLDGSSVEGDKRLLLQIFSETLMGPVFFEFIQRKGDDGFGPDSFKVLFEQVERDQVRRGVLTAD
modifications: mutant HPPD polypeptide
- Residual turnover [%]: 47%
- Turnover: 0.132
- Residual turnover: 0.062

B3: 27 (protein)
chain: MADLYENPMGLMGFEFIEFASPTPGTLEPIFEIMGFTKVATHRSKNVHLYRQGEINLILNNEPNSIASYFAAEHGPSVCGMAFRVKDSQKAYNRALELGAQPIHIDTGPMELNLPAIKGIGGAPLYLIDRFGEGSSIYDIDFVYLEGVERNPVGAGLKVIDHLTHNVYRGRMVYWANFYEKLFNFREARYFDIKGEYTGLTSKAMSAPDGMIRIPLNEESSKGAGQIEEFLMQFNGEGIQHVAFLTDDLVKTWDALKKIGMRFMTAPADNYYEMLEGRLPDHGEPVDQLQARGILLDGSSVEGDKRLLLQIFSETLMGPVFFEFIQRKGDDGFGPHSFKVLFESIERDQVRRGVLTAD
modifications: mutant HPPD polypeptide
- Residual turnover [%]: 38%
- Turnover: 0.266
- Residual turnover: 0.101

B4: 19 (protein)
chain: MADLYENPMGLMGFEFIEFASPTPGTLEPIFEIMGFTKVATHRSKNVHLYRQGEINLILNNEPNSIASYFAAEHGPSVCGMAFRVKDSQKAYNRALELGAQPIHIDTGPMELNLPAIKGIGGAPLYLIDRFGEGSSIYDIDFVYLEGVERNPVGAGLKVIDHLTHNVYRGRMVYWANFYEKLFNFREARYFDIKGEYTGLTSKAMSAPDGMIRIPLNEESSKGAGQIEEFLMQFNGEGIQHVAFLTDDLVKTWDALKKIGMRFMTAPRDEYYEMLEGRLPDHGEPVDQLQARGILLDGSSVEGDKRLLLQIFSETLMGPVFFEFIQRKGDDGFGPDSFKVLFESVERDQVRRGVLTAD
modifications: mutant HPPD polypeptide
- Residual turnover [%]: 45%
- Turnover: 0.141
- Residual turnover: 0.063

B5: 23 (protein)
chain: MADLYENPMGLMGFEFIEFASPTPGTLEPIFEIMGFTKVATHRSKNVHLYRQGEINLILNNEPNSIASYFAAEHGPSVCGMAFRVKDSQKAYNRALELGAQPIHIDTGPMELNLPAIKGIGGAPLYLIDRFGEGSSIYDIDFVYLEGVERNPVGAGLKVIDHLTHNVYRGRMVYWANFYEKLFNFREARYFDIKGEYTGLTSKAMSAPDGMIRIPLNEESSKGAGQIEEFLMQFNGEGIQHVAFLTDDLVKTWDALKKIGMRFMTAPPDTYYEMLEGRLPDHGEPVDQLQARGILLDGSSVEGDKRLLLQIFSETLMGPVFFEFIQRKGDDGFGPDSFKVLFEQVERDQVRRGVLTAD
modifications: mutant HPPD polypeptide
- Residual turnover [%]: 39%
- Turnover: 0.193
- Residual turnover: 0.076

B6: 24 (protein)
chain: MADLYENPMGLMGFEFIEFASPTPGTLEPIFEIMGFTKVATHRSKNVHLYRQGEINLILNNEPNSIASYFAAEHGPSVCGMAFRVKDSQKAYNRALELGAQPIHIDTGPMELNLPAIKGIGGAPLYLIDRFGEGSSIYDIDFVYLEGVERNPVGAGLKVIDHLTHNVYRGRMVYWANFYEKLFNFREARYFDIKGEYTGLTSKAMSAPDGMIRIPLNEESSKGAGQIEEFLMQFNGEGIQHVAFLTDDLVKTWDALKKIGMRFMTAPADTYYEMLEGRLPDHGEPVDQLQARGILLDGSSVEGDKRLLLQIFSETLMGPVFFEFIQRKGDDGFGPHSFKVLFESIERDQVRRGVLTAD
modifications: mutant HPPD polypeptide
- Residual turnover [%]: 39%
- Turnover: 0.271
- Residual turnover: 0.105

B7: 25 (protein)
chain: MADLYENPMGLMGFEFIEFASPTPGTLEPIFEIMGFTKVATHRSKNVHLYRQGEINLILNNEPNSIASYFAAEHGPSVCGMAFRVKDSQKAYNRALELGAQPIHIDTGPMELNLPAIKGIGGAPLYLIDRFGEGSSIYDIDFVYLEGVERNPVGAGLKVIDHLTHNVYRGRMVYWANFYEKLFNFREARYFDIKGEYTGLTSKAMSAPDGMIRIPLNEESSKGAGQIEEFLMQFNGEGIQHVAFLTDDLVKTWDALKKIGMRFMTAPGDTYYEMLEGRLPDHGEPVDQLQARGILLDGSSVEGDKRLLLQIFSETLMGPVFFEFIQRKGDDGFGPHSFKVLFESIERDQVRRGVLTAD
modifications: mutant HPPD polypeptide
- Residual turnover [%]: 39%
- Turnover: 0.215
- Residual turnover: 0.083

B8: 20 (protein)
chain: MADLYENPMGLMGFEFIEFASPTPGTLEPIFEIMGFTKVATHRSKNVHLYRQGEINLILNNEPNSIASYFAAEHGPSVCGMAFRVKDSQKAYNRALELGAQPIHIDTGPMELNLPAIKGIGGAPLYLIDRFGEGSSIYDIDFVYLEGVERNPVGAGLKVIDHLTHNVYRGRMVYWANFYEKLFNFREARYFDIKGEYTGLTSKAMSAPDGMIRIPLNEESSKGAGQIEEFLMQFNGEGIQHVAFLTDDLVKTWDALKKIGMRFMTAPSDEYYEMLEGRLPDHGEPVDQLQARGILLDGSSVEGDKRLLLQIFSETLMGPVFFEFIQRKGDDGFGPDSFKVLFESVERDQVRRGVLTAD
modifications: mutant HPPD polypeptide
- Residual turnover [%]: 53%
- Turnover: 0.199
- Residual turnover: 0.105

B9: 28 (protein)
chain: MADLYENPMGLMGFEFIEFASPTPGTLEPIFEIMGFTKVATHRSKNVHLYRQGEINLILNNEPNSIASYFAAEHGPSVCGMAFRVKDSQKAYNRALELGAQPIHIDTGPMELNLPAIKGIGGAPLYLIDRFGEGSSIYDIDFVYLEGVERNPVGAGLKVIDHLTHNVYRGRMVYWANFYEKLFNFREARYFDIKGEYTGLTSKAMSAPDGMIRIPLNEESSKGAGQIEEFLMQFNGEGIQHVAFLTDDLVKTWDALKKIGMRFMTAPGDNYYEMLEGRLPDHGEPVDQLQARGILLDGSSVEGDKRLLLQIFSETLMGPVFFEFIQRKGDDGFGPHSFKVLFESIERDQVRRGVLTAD
modifications: mutant HPPD polypeptide
- Residual turnover [%]: 43%
- Turnover: 0.204
- Residual turnover: 0.088

B10: 21 (protein)
chain: MADLYENPMGLMGFEFIEFASPTPGTLEPIFEIMGFTKVATHRSKNVHLYRQGEINLILNNEPNSIASYFAAEHGPSVCGMAFRVKDSQKAYNRALELGAQPIHIDTGPMELNLPAIKGIGGAPLYLIDRFGEGSSIYDIDFVYLEGVERNPVGAGLKVIDHLTHNVYRGRMVYWANFYEKLFNFREARYFDIKGEYTGLTSKAMSAPDGMIRIPLNEESSKGAGQIEEFLMQFNGEGIQHVAFLTDDLVKTWDALKKIGMRFMTAPADTYYEMLEGRLPDHGEPVDQLQARGILLDGSSVEGDKRLLLQIFSETLMGPVFFEFIQRKGDDGFGPDSFKVLFEQVERDQVRRGVLTAD
modifications: mutant HPPD polypeptide
- Residual turnover [%]: 51%
- Turnover: 0.157
- Residual turnover: 0.080

B11: 17 (protein)
chain: MADLYENPMGLMGFEFIEFASPTPGTLEPIFEIMGFTKVATHRSKNVHLYRQGEINLILNNEPNSIASYFAAEHGPSVCGMAFRVKDSQKAYNRALELGAQPIHIDTGPMELNLPAIKGIGGAPLYLIDRFGEGSSIYDIDFVYLEGVERNPVGAGLKVIDHLTHNVYRGRMVYWANFYEKLFNFREARYFDIKGEYTGLTSKAMSAPDGMIRIPLNEESSKGAGQIEEFLMQFNGEGIQHVAFLTDDLVKTWDALKKIGMRFMTAPADEYYEMLEGRLPDHGEPVDQLQARGILLDGSSVEGDKRLLLQIFSETLMGPVFFEFIQRKGDDGFGPDSFKVLFESVERDQVRRGVLTAD
modifications: mutant HPPD polypeptide
- Residual turnover [%]: 59%
- Turnover: 0.138
- Residual turnover: 0.081

B12: 18 (protein)
chain: MADLYENPMGLMGFEFIEFASPTPGTLEPIFEIMGFTKVATHRSKNVHLYRQGEINLILNNEPNSIASYFAAEHGPSVCGMAFRVKDSQKAYNRALELGAQPIHIDTGPMELNLPAIKGIGGAPLYLIDRFGEGSSIYDIDFVYLEGVERNPVGAGLKVIDHLTHNVYRGRMVYWANFYEKLFNFREARYFDIKGEYTGLTSKAMSAPDGMIRIPLNEESSKGAGQIEEFLMQFNGEGIQHVAFLTDDLVKTWDALKKIGMRFMTAPPDEYYEMLEGRLPDHGEPVDQLQARGILLDGSSVEGDKRLLLQIFSETLMGPVFFEFIQRKGDDGFGPDSFKVLFESVERDQVRRGVLTAD
modifications: mutant HPPD polypeptide
- Residual turnover [%]: 43%
- Turnover: 0.134
- Residual turnover: 0.057

B13: 26 (protein)
chain: MADLYENPMGLMGFEFIEFASPTPGTLEPIFEIMGFTKVATHRSKNVHLYRQGEINLILNNEPNSIASYFAAEHGPSVCGMAFRVKDSQKAYNRALELGAQPIHIDTGPMELNLPAIKGIGGAPLYLIDRFGEGSSIYDIDFVYLEGVERNPVGAGLKVIDHLTHNVYRGRMVYWANFYEKLFNFREARYFDIKGEYTGLTSKAMSAPDGMIRIPLNEESSKGAGQIEEFLMQFNGEGIQHVAFLTDDLVKTWDALKKIGMRFMTAPPDTYYEMLEGRLPDHGEPVDQLQARGILLDGSSVEGDKRLLLQIFSETLMGPVFFEFIQRKGDDGFGPHSFKVLFESIERDQVRRGVLTAD
modifications: mutant HPPD polypeptide
- Residual turnover [%]: 28%
- Turnover: 0.279
- Residual turnover: 0.077

— patent US11180770B2, “HPPD variants and methods of use” (BASF Agricultural Solutions Seed US LLC, priority 2017, dated 2021)
